Measured values as given in patent publication US20050197296A1, “Agents for preventing and treating thrombocytopenia” (CHUGAI SEIYAKU KABUSHIKI KAISHA, priority 1996, published 2005).

Experiments:
platelet count [1] = experiment: Effectiveness of PTH derivative, daily administration to mouse; format: in vivo, C57B1/6N mice; details: 200 μg/kg subcutaneous once a day for six days, blood 24 h after final administration
Description: Ten-week old male C57B1/6N mice as purchased from Japan Charles River Co., Ltd. were used in the experiment.
Drug solutions to be administered were prepared basically from human PTH(1-84) and human PTH(1-34) by the same procedure as in Example 1 to give a drug concentration of 20 μg/mL.
Eighteen mice were divided into three groups, which were administered subcutaneously with the two drug solutions and a control (citrate buffer) for six days on a once-a-day basis in a volume of 10 mL/kg. […] The administration was initiated at 10 a.m.
After 24 h of the final administration, a blood sample was withdrawn from each mouse through the orbital vein. Peripheral corpuscle counts were obtained with an automatic corpuscle counter F-800 (TOA MEDICAL ELECTRONICS CO., LTD).

platelet counts = experiment: Test for single-dose administration to mouse (platelet increasing action); format: in vivo, C57B1/6N mice; details: single dose 10 μg/kg through the tail vein, 6 and 9 h after the administration
Description: Nine-week old male C57B1/6N mice as purchased from Japan Charles River Co. Ltd. were used in the experiment.
Human PTH(1-84) was dissolved in a citrate buffer (pH 5; containing 0.05% of Tween 80) at final concentrations of 1, 0.2 and 0.04 ˜g/mL so as to prepare the drug solutions to be administered.
Each of the thus prepared drug solutions and a control (citrate buffer) was administered to 15 mice through the tail vein in a volume of 10 mL/kg. […] The administration was initiated at 10 a.m.
After 3, 6 and 9 hours of the administration, five mice were picked up at random from each group of animals and blood samples were withdrawn through the orbital vein. At 10 a.m. on the same day, separate blood samples were taken from untreated mice (four in number) to obtain the preadministration value. Peripheral corpuscle counts were obtained with an automatic corpuscle counter F-800 (TOA MEDICAL ELECTRONICS CO., LTD

platelet count [2] = experiment: Test for daily administration to mouse (platelet increasing action); format: in vivo, C57B1/6N mice; details: subcutaneous once a day
Description: Nine-week old male C57B1/6N mice as purchased from Japan Charles River Co., Ltd. were used in the experiment.
Drug solutions to be administered were prepared basically by the same procedure as in Example 1 to give drug concentrations of 5, 20 and 80 μg/mL.
The mice under test were divided into four groups, which were administered subcutaneously with the three drug solutions and a control (citrate buffer) once a day in a volume of 10 mL/kg. […] The administration was initiated at 10 a.m.
On days 5, 7 and 9 after the start of administration, five or six mice were picked up at random from each group of animals and blood samples were withdrawn through the orbital vein. The sampling of blood was timed to occur 24 h of the final administration. Separate blood samples were taken from untreated mice (five in number) to obtain the value for normal mouse. Peripheral corpuscle counts were obtained with an automatic corpuscle counter F-800(TOA MEDICAL ELECTRONICS CO., LTD.).

platelet count [3] = experiment: Test for daily administration to rabbit (platelet increasing action); format: in vivo, Japanese albino rabbits JW/CSK; details: 200 μg/kg subcutaneous daily
Description: Six 12-15 week old male Japanese albino rabbits JW/CSK were used in the experiment. The animals were individually kept in aluminum rabbit bracket cages Rb-1 (350^w×500^d×350^h mm) in a vavarium in a specific pathogen-free environment under the following conditions: temperature, 24±2° C.; humidity, 50±10%; illumination, light turned on at 5:00 and turned off at 19:00; ventilation, 15 changes/hr. Each animal was supplied with 120 g of a radiation-sterilized feed for rabbits RM (purchased from Funahashi Farm) per day. The animals were also allowed to drink to tap water ad libitum from an automatic water feeder.
Human PTH(1-84) was administered in a volume of 2 mL/vial at a concentration of 200 μg/mL. A solvent was also supplied in a volume of 2 mL/vial. Both the drug and the control were stored at −135° C. until use.
PTH (200 μg/kg) was administered to the rabbits subcutaneously at the back of their neck for 13 consecutive days. The solvent was similarly administered in the same volume as the dose of a rh-PTH solution calculated from their body weight.
Blood samples (0.5 mL) were withdrawn from the rabbits through the lateral auricular vein before the administration and on days 2, 6, 9 and 13 during the administration period. […]

[4] = test system: BFU-E (precursor cells of erythrocytes); details: literature report, J. Clin. Invest. Vol. 67, 1263-1269:1981; cited from earlier work
[5] = test system: CFU-GM (precursor cells of granulocytes and macrophages); details: literature report, J. Clin. Invest. Vol. 67, 1263-1269:1981; cited from earlier work

B1: human PTH(1-84) (protein, UniProt P01270 32-115, looked up)
Parathyroid hormone: SVSEIQLMHNLGKHLNSMERVEWLRKKLQDVHNFVALGAPLAPRDAGSQRPRKKEDNVLVESHEKSLGEADKADVNVLTKAKSQ
modifications: Parathyroid hormone
Platelet count [1]
  platelet increasing action: platelet increasing action
Platelet counts
  platelet counts versus control: significant increase in platelet counts over the control
Platelet count [2]; 200 and 800 μg/kg, day 5
  platelet count: tendency to increase
Platelet count [2]; all treated groups (50, 200 and 800 μg/kg), day 7
  platelet count versus control: significantly higher in platelet count than the control
Platelet count [3]; day 2 until day 6
  platelet count relative to the initial value: two to four times as great as the initial value
Platelet count [3]; day 13
  platelet count relative to the initial level: substantially returned to the initial level

B2: parathyroid hormone (PTH): PTH as studied in the literature report by Meytes et al; form and species not printed (protein, UniProt P01270 32-115, looked up)
Parathyroid hormone: B1 Parathyroid hormone
modifications: Parathyroid hormone
[4]
  in vitro colony formation by BFU-E: interfered with the in vitro colony formation
[5]
  in vitro colony formation by CFU-GM: interfered with the in vitro colony formation
